The record followed here is US20260092121A1 (TALEM THERAPEUTICS, published 2026).

B1: anti-TrkB clone 2C07 (antibody, V domains shown)
VH: QVQLQQSGGGVVQPGRSLRLSCAASGFTFSNYAMHWVRQAPGKGLEWVAVISYDGSNEYYADSVKGRFTISRDNSRNTLDLQMNSLRAEDTAVYYCARGTNYGMDVWGQGTMVTVSS
VL: LSELTQDPAVSVALGQTVRITCQGDSLRSYYASWYQQKPGQAPVLVIYGKNNRPSGIPDRFSGSDSGKTASLTITGAQAEDEADYYCQSRDTTGNYLLFGGGTKLTVL
notes: full-length IgG
B2: anti-TrkB clone 5C01 (antibody, V domains shown)
VH: QMQLVQSGAEVKKPGESLKISCKGSGYSFTSYWIGWVRQMPGKGLEWLGIIYPGDSDTRYSPSFQGQVTISADKSISTAYLQWSSLKASDTAMYYCARLGQGSGPFDYWGQGTLVTVSS
VL: QSVVTQPPSVSGTPGQRVSISCSGSSSNIGSHSVTWFQQLPGTAPKLLIYGNSQRPSGVPDRFSGSKSGTSASLAISGLQSEDEADYYCASWDDSLNGYVFGTGTKLTVL
notes: full-length IgG
B3: anti-TrkB clone 2E02 (antibody, V domains shown)
VH: QVQLQQSGPGLVKPSQTLSVTCVISGDSVSSKSAAWHWIRQSPSRGLEWLGRTYYRSKWYSDYGESVKSRVVINADTSNNQISLQLSSVTPEDTAAYYCARGIGSLNFDIWGQGTMVTVSS
VL: QSVLTQPPSASGSPGQSVTISCTGTSGDVGGYNYVSWYQQHPGKAPKLILYEVTKRPSGVPDRFSGSKSGNTASLTVSGLQAEDEADYYCSSYGGPNNLVLFGGGTKVTVL
notes: full-length IgG
B4: anti-TrkB clone 1F01 (antibody, V domains shown)
VH: B3 VH with S15A, V20L, V23D
VL: QSVVTQPASVSGSPGQSITISCTGTSSDIGGYDYVSWYQQHPGKAPKLMIFDVSNRPSGVSNRFSGSKSGNTASLTISGLQADDEADYYCSSYRAGSTLNLLFGGGTKLTVL
notes: full-length IgG
B5: anti-TrkB clone 6E08 (antibody, V domains shown)
VH: QVQLVQSGGGVVQPGRSLRLSCAASGFTFSSYAMHWVRQAPGKGLEWVAVISYDGSNKYYADSVKGRFTISRDNSKNTLYLQMNSLRAEDTAVYYCARAFRRYDAFDIWGQGTLVTVSS
VL: DIQMTQTPLSLSVTLGQPASISCRSSQGLVYSDGNTYLNWFQQRPGQSPRRLIYKVSNRDSGVPDRFSGSGSGTDFTLKISRVEAEDVGVYYCMQGTHWPPAFGQGTKVEIK
notes: full-length IgG
B6: anti-TrkB clone 6B11 (antibody, V domains shown)
VH: QVQLQQSGAGLVKASQTLALTCAISGDSVSSNSAAWNWIRQSPSRGLEWLGRTYYRSKWYNDYAVSVKSRITINPDTSTNQFSLQLNSVTPEDTAVYYCTRGTGDKRAFDYWGQGTLVTVSS
VL: QSVLTQPPSASGTPGQRVTISCSGSSSNIGSYFVSWYQQLPGTAPKLLIYRNDKRPSGVPERFSGSKSGTSASLAISGLQSEDEADYYCAAWDDSLSGRIFGGGTKLTVL
notes: full-length IgG
B7: anti-TrkB clone 1E02 (antibody, V domains shown)
VH: QVQLLQSAAEVKKPGESLKISCKGSGYRFTSYWIGWVRQMPGKGLEWVGIIYPDDSDTRYSPSFQGQVTISADTSISTTYLQWSSLKASDTAIYYCASGEVAFDVWGQGTTVTVSS
VL: QSVLTQPPSLSVSPRQTASITCSGDKLGDKFVSWYQQKPGQSPVLVIYQDTKRPSGIPERFSGSNSGNTATLTISGTQAMDEADYYCQAWDSSTGVFGGGTKLTVL
notes: full-length IgG
B8: anti-TrkB clone 3C12 (antibody, V domains shown)
VH: QVQLVQSGAEVKKPGESLKISCKGSGYSFTSYWIGWVRQMPGKGLEWMGIIYPGDSDTRYSPSFQGQVTISADKSISTAYLQWSSLKASDTAMYYCTRSSFNDHWGQGTLVTVSS
VL: QPVLTQPPSVSVSPGQTASITCSGDKLGNKFVSWFQQKPGQSPVLVIYQDTKRPSGIPERFSGSNSGSTATLTITGTQAMDDADYYCQAWNTNTALFGGGTKLTVL
notes: full-length IgG
B9: anti-TrkB clone 6B04 (antibody, V domains shown)
VH: QVQLVQSGAEVKKPGESLKISCKGSGYSFTSYWIGWVRQMPGKGLEWMGIIYPGDSDTRYSPSFQGQVTISADKSISTAYLQWSSLKASDTAIYYCARLGGAMDVWGQGTLVTVSS
VL: SYELMQPPSLSVSPGQTASITCSGDKLGDKYVSWYQQRPGQSPVLVMYQDKKRPSGIPKRFSGSNSGNTATLTISGTQAMDEADYYCAAWDDSLNGYYVFGTGTQLTVL
notes: full-length IgG
B10: anti-TrkB clone 5A07 (antibody, V domains shown)
VH: B9 VH with I93M, L99H, G100D, G101Y, A102G, L111M
VL: LPVLTQPPSASGTPGQRVTISCSGSRSNVGGNTVSWYQQLPGSAPKLLIYTNNQRPSGVPDRFSGSKSGTSASLAISGLQSEDEADYYCAAWDDSLNGYVFGTGTQLTVL
notes: full-length IgG
B11: anti-TrkB clone 4G12 (antibody, V domains shown)
VH: B9 VH with Q1E, I93M, L99H, G100D, G101Y, A102G, L111T
VL: QSVLTQPPSVSVSPGQTASITCSGDKLGDKFASWYQQKPGQSPVLVIYQDNKRPSRVPERFSGSNSGNTATLTISETQAMDEADYYCQAWVNNTVVFGGGTKVTVL
notes: full-length IgG
B12: KiH.F5_TrkB × 8A05_CD3 (bispecific antibody)
scFv: not shown
VH: QVQLQQSGGGLVQSGGSLRLSCAASGFSFGSSAMSWVRQAPGRGLEWVSGISHSGSTTYYADSVKGRFTISRDNSKNTLYLQMNSLRVEDTAVYYCAKIGAYGYYFHYWGQGTLVTVSS
VL: NFMLTQPHSVSESPGKTVTISCTRSGGSIASNYVQWYQQRPGSSPTTVIYDDNQRPSGVPDRFSGSIDSSSNSASLTISGLKTEDEADYYCQSSDNINHVIFGGGTKLTVL
notes: scFv-knob-Fc (IgG1 T366W/S354C) + Fab-hole-Fc (T366S/L368A/Y407V/Y349C); also called F5-8A05; F5_8A05
B13: KiH.F5_TrkB × 3G07_CD3 (bispecific antibody)
scFv: not shown
VH: B12 VH with S14P
VL: NFMLTQPHSLSESPGKTVTISCTRSSGSIASKYVQWYQQRPGSAPTTVIYDDKQRPSGVPDRFSGSFDSSSNSASLTISGLKTEDEADYYCQSFDSTNQAVVFGGGTKLTVL
notes: scFv-knob-Fc (IgG1 T366W/S354C) + Fab-hole-Fc (T366S/L368A/Y407V/Y349C); also called F5-3G07; F5_3G07
B14: KiH.F5_TrkB × 1A09_CD3 (bispecific antibody)
scFv: not shown
VH: EVQLVQSGGGLVKPGGSLRLSCAASGFTFSSYSMNWVRQAPGKGLEWVSSISSSSSYIYYADSVKGRFTISRDNSKNTLYLQMNSLRAEDTAVYYCARVKDYDSSLDYWGQGTLVTVSS
VL: SYELMQPPSVSVSPGQTARITCSGFKLGDKYVSWYQQKPGQSPVLVIYQDSKRPSGIPERFSGSNSGNTATLTISGTQAMDEADYYCQAWDSSTVVFGGGTKLTVL
notes: scFv-knob-Fc (IgG1 T366W/S354C) + Fab-hole-Fc (T366S/L368A/Y407V/Y349C); also called F5×1A09; F5-1A09

Residue numbers refer to the chain shown, from its start. In names and notes the source's numbering stands.

human TrkA-His, sequence (P04629 33-417 limits assumed): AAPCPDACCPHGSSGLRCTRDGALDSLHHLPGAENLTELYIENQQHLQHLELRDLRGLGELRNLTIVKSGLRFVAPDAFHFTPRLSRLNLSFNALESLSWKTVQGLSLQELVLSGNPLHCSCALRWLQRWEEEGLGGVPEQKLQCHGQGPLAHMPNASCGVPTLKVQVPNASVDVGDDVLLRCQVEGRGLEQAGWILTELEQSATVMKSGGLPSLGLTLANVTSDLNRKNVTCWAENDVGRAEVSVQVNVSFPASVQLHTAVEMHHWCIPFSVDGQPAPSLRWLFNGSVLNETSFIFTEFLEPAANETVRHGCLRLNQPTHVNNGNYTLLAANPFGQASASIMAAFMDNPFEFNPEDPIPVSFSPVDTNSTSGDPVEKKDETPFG

The first experiment has as its target T1, human TrkB-His (human, UniProt Q16620 32-430).
T1 construct: in-house fusion of the TrkB ECD with poly-His, HEK293; also called huTrkB-His; hTrkB-His; not shown: poly-His tag
The experiment is described as follows: BLI off-rate, mAb captured.
On to B1, for which the koff was found to be 0.00399 s⁻¹.
With B2, the koff came out at 0.00491 s⁻¹.
The same measure, in the same setting: the figure for B3 is 0.0113 s⁻¹; for B4 it is 0.011 s⁻¹; for B5 it is 0.0064 s⁻¹.
Still for that read-out and setting: for B6 the value was 0.00687 s⁻¹; for B7, 0.00318 s⁻¹; for B8, 0.000586 s⁻¹.
Still for that read-out and setting: for B9 the value was 0.00678 s⁻¹.
B10 yielded a koff of 0.00544 s⁻¹.
As for B11, the dissociation rate constant (koff) is 0.00545 s⁻¹.

For a further experiment, the target named is T2, mouse TrkB-ECD-GST (mouse, UniProt P15209 32-429).
T2 construct: extracellular domain; in-house fusion, HEK293; also called mTrkB-ECD-GST; mTrkB (ELISA); not shown: glutathione S-transferase (GST) fusion part
The experiment is described as follows: ELISA.
As for B1, the binding result is reported as “binds”.
The same measure, in the same setting: the entry for B2 is “binds”; for B3 it is “binds”.
On the same count and under the same terms, the entry for B4 is “binds”; for B5 it is “binds”; for B6 it is “binds”.
With B7, the binding result is reported as “binds”.
On the same count and under the same terms, for B8 the value was “binds”; for B9, “binds”; for B10, “binds”.
As for B11, the binding result is “binds”.

For a further experiment, the target named is TrkB in PathHunter eXpress TrkB Functional Assay cells (modified U2OS). The experiment is described as follows: cell-based or functional assay.
As for B1, the “TrkB activation (EC50)” value was determined as 0.036 µg/mL.
As to B2, the “TrkB activation (EC50)” value stood at 0.08 µg/mL.
Still for that read-out and setting: the figure for B3 is 0.12 µg/mL.
The same measure, in the same setting: for B4 the value was 0.51 µg/mL; for B5, 4.2 µg/mL.
In the case of B6, the “TrkB activation (EC50)” value is 0.11 µg/mL.
With B7, the “TrkB activation (EC50)” value is 0.047 µg/mL.
Same read-out and setting: the figure for B8 is 0.018 µg/mL.
Still for that read-out and setting: for B9 the value was 0.039 µg/mL; for B10, 0.13 µg/mL; for B11, 0.07 µg/mL.

Another experiment addresses human TrkC-His (human, UniProt Q16288 32-429). The experiment is described as follows: ELISA.
Turning to B1, the binding result is “no binding (tested: up to 10 µg/mL)”.
Still for that read-out and setting: the entry for B2 is “no binding (tested: up to 10 µg/mL)”.
Same read-out and setting: the entry for B3 is “no binding (tested: up to 10 µg/mL)”; for B4 it is “no binding (tested: up to 10 µg/mL)”.
Same read-out and setting: for B5 the value was “no binding (tested: up to 10 µg/mL)”; for B6, “no binding (tested: up to 10 µg/mL)”; for B7, “no binding (tested: up to 10 µg/mL)”.
As for B8, the binding result is given as “no binding (tested: up to 10 µg/mL)”.
Still for that read-out and setting: for B9 the value was “no binding (tested: up to 10 µg/mL)”.
Regarding B10, the binding result was “no binding (tested: up to 10 µg/mL)”.
The same measure, in the same setting: for B11 the value was “no binding (tested: up to 10 µg/mL)”.

The next experiment addresses T1, human TrkB-His. The experiment is described as follows: ELISA.
As for B12, the binding result was “binds”.
Regarding B13, the binding result is reported as “binds”.
Still for that read-out and setting: the entry for B14 is “binds”.

Another experiment addresses human TrkA-His (human, UniProt P04629 33-417, limits assumed). The experiment is described as follows: ELISA.
For B1, the binding result is reported as “no binding (tested: up to 10 µg/mL)”.
Same read-out and setting: the entry for B2 is “no binding (tested: up to 10 µg/mL)”; for B3 it is “no binding (tested: up to 10 µg/mL)”; for B4 it is “no binding (tested: up to 10 µg/mL)”.
Still for that read-out and setting: the entry for B5 is “no binding (tested: up to 10 µg/mL)”; for B6 it is “no binding (tested: up to 10 µg/mL)”.
Same read-out and setting: for B7 the value was “no binding (tested: up to 10 µg/mL)”; for B8, “no binding (tested: up to 10 µg/mL)”; for B9, “no binding (tested: up to 10 µg/mL)”.
On to B10, for which the binding result is listed as “no binding (tested: up to 10 µg/mL)”.
The same measure, in the same setting: the entry for B11 is “no binding (tested: up to 10 µg/mL)”.
